Data: US20180028693A1

Biological target: GvpA of Anabaena flos-aquae gas vesicles (GvpA-based shell of urea-stripped Ana GVs) (Anabaena flos-aquae) (UniProt P10397)
Assay: SDS-PAGE of ST-Ana GVs against a standard curve of GvpC-ST

Sequence of UniProt P10397 (P10397 2-71): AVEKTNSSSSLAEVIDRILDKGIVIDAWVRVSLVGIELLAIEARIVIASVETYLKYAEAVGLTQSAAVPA

SpyTag functionalities per GV: 1000 per GV
B1: GvpC-SpyTag (GvpC comprising a SpyTag fused to the C-terminus, and a His-tag fused to the C-terminus of the SpyTag) (protein)
chain: MGISLMAKIRQEHQSIAEKVAELSLETREFLSVTTAKRQEQAEKQAQELQAFYKDLQETSQQFLSETAQARIAQAEKQAQELLAFHKELQETSQQFLSATAQARIAQAEKQAQELLAFYQEVRETSQQFLSATAQARIAQAEKQAQELLAFHKELQETSQQFLSATADARTAQAKEQKESLLKFRQDLFVSIFGSGAHIVMVDAYKPTKGSGLEHHHHHH
